Results reported in US20220010021A1 (Sanofi, published 2022).

T1: beta-Klotho (KLB) (Homo sapiens (Human), UniProt Q86Z14 1-996)
T1 construct: also called β-Klotho; not shown: C-terminal His tag of the bought R&D Systems protein
T1 sequence: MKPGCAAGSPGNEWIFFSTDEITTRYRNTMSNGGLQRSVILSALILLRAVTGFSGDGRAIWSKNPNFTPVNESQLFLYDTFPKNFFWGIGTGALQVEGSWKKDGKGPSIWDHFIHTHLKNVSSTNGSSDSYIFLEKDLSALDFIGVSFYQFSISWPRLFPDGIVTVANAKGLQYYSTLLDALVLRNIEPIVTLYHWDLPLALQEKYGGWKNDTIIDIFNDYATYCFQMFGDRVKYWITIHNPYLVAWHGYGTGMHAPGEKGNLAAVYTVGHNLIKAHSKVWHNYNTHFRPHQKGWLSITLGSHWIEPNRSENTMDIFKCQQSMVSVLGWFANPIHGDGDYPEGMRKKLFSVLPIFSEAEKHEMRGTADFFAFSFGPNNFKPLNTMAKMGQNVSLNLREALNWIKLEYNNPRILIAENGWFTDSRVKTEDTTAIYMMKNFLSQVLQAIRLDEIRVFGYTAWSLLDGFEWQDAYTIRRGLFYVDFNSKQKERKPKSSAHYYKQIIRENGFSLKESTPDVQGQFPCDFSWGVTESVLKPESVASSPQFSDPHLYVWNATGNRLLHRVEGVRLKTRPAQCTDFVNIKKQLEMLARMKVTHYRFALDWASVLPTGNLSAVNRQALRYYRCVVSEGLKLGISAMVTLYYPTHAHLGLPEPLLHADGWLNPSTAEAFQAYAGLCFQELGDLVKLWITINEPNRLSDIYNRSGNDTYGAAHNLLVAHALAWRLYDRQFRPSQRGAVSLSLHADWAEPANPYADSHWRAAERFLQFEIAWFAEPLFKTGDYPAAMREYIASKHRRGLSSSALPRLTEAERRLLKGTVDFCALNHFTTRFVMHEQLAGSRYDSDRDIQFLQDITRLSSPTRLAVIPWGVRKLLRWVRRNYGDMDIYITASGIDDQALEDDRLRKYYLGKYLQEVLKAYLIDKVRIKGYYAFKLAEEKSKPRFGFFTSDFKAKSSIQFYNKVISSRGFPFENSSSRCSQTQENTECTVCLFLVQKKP


Columns and labels:
[1] = molecular target: T1, beta-Klotho (KLB); test: BLI (Octet) off-rate screening, mAb from supernatant on anti-hIgG Fc sensor, 5 nmol/L KLB;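 also: dissociation followed for 1800 s in D-PBS plus 0.1% BSA, antibody supernatants applied at 25 µg/mL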
[2] = molecular target: cell surface receptor composed of the tyrosine kinase receptor FGFR1c and co-receptor beta-Klotho (KLB) (human, UniProt P11362 22-822; Q86Z14 1-1044); test: cell-based or functional assay
cell surface receptor composed of the tyrosine kinase receptor FGFR1c and co-receptor beta-Klotho (KLB), sequence (P11362 22-822, one chain of several): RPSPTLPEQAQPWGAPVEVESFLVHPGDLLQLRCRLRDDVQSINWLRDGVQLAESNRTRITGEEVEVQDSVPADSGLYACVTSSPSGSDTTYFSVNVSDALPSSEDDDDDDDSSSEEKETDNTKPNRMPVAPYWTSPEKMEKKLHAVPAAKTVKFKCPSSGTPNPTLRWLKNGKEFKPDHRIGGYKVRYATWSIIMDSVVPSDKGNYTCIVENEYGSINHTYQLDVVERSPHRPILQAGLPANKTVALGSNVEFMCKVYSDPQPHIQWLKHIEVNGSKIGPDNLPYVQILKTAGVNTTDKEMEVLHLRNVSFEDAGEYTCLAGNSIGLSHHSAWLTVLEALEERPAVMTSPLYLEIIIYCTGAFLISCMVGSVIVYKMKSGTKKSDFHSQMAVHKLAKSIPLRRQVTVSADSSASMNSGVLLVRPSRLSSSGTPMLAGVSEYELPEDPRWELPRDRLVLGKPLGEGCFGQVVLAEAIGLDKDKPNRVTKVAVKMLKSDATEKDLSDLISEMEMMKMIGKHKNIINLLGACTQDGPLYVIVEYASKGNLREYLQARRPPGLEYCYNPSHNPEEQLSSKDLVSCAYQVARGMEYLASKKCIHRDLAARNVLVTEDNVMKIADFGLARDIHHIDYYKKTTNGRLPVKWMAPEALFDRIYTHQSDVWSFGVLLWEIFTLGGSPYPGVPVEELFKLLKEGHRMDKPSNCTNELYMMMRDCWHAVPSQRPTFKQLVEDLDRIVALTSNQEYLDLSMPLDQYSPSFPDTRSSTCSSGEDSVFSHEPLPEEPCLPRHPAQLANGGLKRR

koff [1] | Mean E max, Luciferase gene reporter assay [2] | Mean EC50, Luciferase gene reporter assay [2] | Binder
3.1e-05 s⁻¹ | 103% | 0.161 nM | 16H7 variant with light chain substitution N93T (antibody, human IgG4 S228P, lambda, V domains shown, IgG4 backbone was used) VH: not shown VL: SYVLTQPPSVSVAPGQTARITCGGNNIGSESVHWYQQKPGQAPVLVVYDDSDRPSGIPERFSGSNSGNTATLTISRVEAGDEADYYCQVWDGTSDHVVFGGGTKLTVLG
5.7e-05 s⁻¹ | 104% | 0.123 nM | 16H7 variant with light chain substitution S94R (antibody, human IgG4 S228P, lambda, V domains shown, IgG4 backbone was used) VH: not shown VL: SYVLTQPPSVSVAPGQTARITCGGNNIGSESVHWYQQKPGQAPVLVVYDDSDRPSGIPERFSGSNSGNTATLTISRVEAGDEADYYCQVWDGNRDHVVFGGGTKLTVLG
3.3e-05 s⁻¹ | 103% | 0.214 nM | 16H7 variant with light chain substitution V97M (antibody, human IgG4 S228P, lambda, V domains shown, IgG4 backbone was used) VH: not shown VL: SYVLTQPPSVSVAPGQTARITCGGNNIGSESVHWYQQKPGQAPVLVVYDDSDRPSGIPERFSGSNSGNTATLTISRVEAGDEADYYCQVWDGNSDHMVFGGGTKLTVLG
1.2e-05 s⁻¹ | 101% | 0.117 nM | 16H7 variant with light chain substitution S94M (antibody, human IgG4 S228P, lambda, V domains shown, IgG4 backbone was used) VH: not shown VL: SYVLTQPPSVSVAPGQTARITCGGNNIGSESVHWYQQKPGQAPVLVVYDDSDRPSGIPERFSGSNSGNTATLTISRVEAGDEADYYCQVWDGNMDHVVFGGGTKLTVLG
6.5e-05 s⁻¹ | 105% | 0.108 nM | 16H7 variant with light chain substitution N93Y (antibody, human IgG4 S228P, lambda, V domains shown, IgG4 backbone was used) VH: not shown VL: SYVLTQPPSVSVAPGQTARITCGGNNIGSESVHWYQQKPGQAPVLVVYDDSDRPSGIPERFSGSNSGNTATLTISRVEAGDEADYYCQVWDGYSDHVVFGGGTKLTVLG
3.4e-05 s⁻¹ | 103% | 0.122 nM | 16H7 variant with light chain substitution S94D (antibody, human IgG4 S228P, lambda, V domains shown, IgG4 backbone was used) VH: not shown VL: SYVLTQPPSVSVAPGQTARITCGGNNIGSESVHWYQQKPGQAPVLVVYDDSDRPSGIPERFSGSNSGNTATLTISRVEAGDEADYYCQVWDGNDDHVVFGGGTKLTVLG
3.3e-05 s⁻¹ | 103% | 0.133 nM | 16H7 variant with light chain substitution S94N (antibody, human IgG4 S228P, lambda, V domains shown, IgG4 backbone was used) VH: not shown VL: SYVLTQPPSVSVAPGQTARITCGGNNIGSESVHWYQQKPGQAPVLVVYDDSDRPSGIPERFSGSNSGNTATLTISRVEAGDEADYYCQVWDGNNDHVVFGGGTKLTVLG
1.7e-05 s⁻¹ | 110% | 0.12 nM | 16H7 variant with light chain substitution V97I (antibody, human IgG4 S228P, lambda, V domains shown, IgG4 backbone was used) VH: not shown VL: SYVLTQPPSVSVAPGQTARITCGGNNIGSESVHWYQQKPGQAPVLVVYDDSDRPSGIPERFSGSNSGNTATLTISRVEAGDEADYYCQVWDGNSDHIVFGGGTKLTVLG
1e-07 s⁻¹ | 100% | 0.132 nM | 16H7 variant with light chain substitution S94F (antibody, human IgG4 S228P, lambda, V domains shown, IgG4 backbone was used) VH: not shown VL: SYVLTQPPSVSVAPGQTARITCGGNNIGSESVHWYQQKPGQAPVLVVYDDSDRPSGIPERFSGSNSGNTATLTISRVEAGDEADYYCQVWDGNFDHVVFGGGTKLTVLG
3.2e-05 s⁻¹ | 109% | 0.116 nM | 16H7 variant with light chain substitution S94T (antibody, human IgG4 S228P, lambda, V domains shown, IgG4 backbone was used) VH: not shown VL: SYVLTQPPSVSVAPGQTARITCGGNNIGSESVHWYQQKPGQAPVLVVYDDSDRPSGIPERFSGSNSGNTATLTISRVEAGDEADYYCQVWDGNTDHVVFGGGTKLTVLG
0.00023 s⁻¹ | 104% | 0.19 nM | 16H7 variant with light chain substitution V97C (antibody, human IgG4 S228P, lambda, V domains shown, IgG4 backbone was used) VH: not shown VL: SYVLTQPPSVSVAPGQTARITCGGNNIGSESVHWYQQKPGQAPVLVVYDDSDRPSGIPERFSGSNSGNTATLTISRVEAGDEADYYCQVWDGNSDHCVFGGGTKLTVLG
4.4e-05 s⁻¹ | 103% | 0.169 nM | 16H7 variant with light chain substitution S94L (antibody, human IgG4 S228P, lambda, V domains shown, IgG4 backbone was used) VH: not shown VL: SYVLTQPPSVSVAPGQTARITCGGNNIGSESVHWYQQKPGQAPVLVVYDDSDRPSGIPERFSGSNSGNTATLTISRVEAGDEADYYCQVWDGNLDHVVFGGGTKLTVLG
4.3e-05 s⁻¹ | 103% | 0.159 nM | 16H7 variant with light chain substitution S94W (antibody, human IgG4 S228P, lambda, V domains shown, IgG4 backbone was used) VH: not shown VL: SYVLTQPPSVSVAPGQTARITCGGNNIGSESVHWYQQKPGQAPVLVVYDDSDRPSGIPERFSGSNSGNTATLTISRVEAGDEADYYCQVWDGNWDHVVFGGGTKLTVLG
1e-07 s⁻¹ | 99% | 0.138 nM | 16H7 variant with light chain substitution S94C (antibody, human IgG4 S228P, lambda, V domains shown, IgG4 backbone was used) VH: not shown VL: SYVLTQPPSVSVAPGQTARITCGGNNIGSESVHWYQQKPGQAPVLVVYDDSDRPSGIPERFSGSNSGNTATLTISRVEAGDEADYYCQVWDGNCDHVVFGGGTKLTVLG
4.6e-05 s⁻¹ | 99% | 0.107 nM | 16H7 variant with light chain substitution S94A (antibody, human IgG4 S228P, lambda, V domains shown, IgG4 backbone was used) VH: not shown VL: SYVLTQPPSVSVAPGQTARITCGGNNIGSESVHWYQQKPGQAPVLVVYDDSDRPSGIPERFSGSNSGNTATLTISRVEAGDEADYYCQVWDGNADHVVFGGGTKLTVLG
4e-05 s⁻¹ | 108% | 0.139 nM | 16H7 variant with light chain substitution N93V (antibody, human IgG4 S228P, lambda, V domains shown, IgG4 backbone was used) VH: not shown VL: SYVLTQPPSVSVAPGQTARITCGGNNIGSESVHWYQQKPGQAPVLVVYDDSDRPSGIPERFSGSNSGNTATLTISRVEAGDEADYYCQVWDGVSDHVVFGGGTKLTVLG
6.2e-05 s⁻¹ | 100% | 0.098 nM | 16H7 variant with light chain substitution S94Y (antibody, human IgG4 S228P, lambda, V domains shown, IgG4 backbone was used) VH: not shown VL: SYVLTQPPSVSVAPGQTARITCGGNNIGSESVHWYQQKPGQAPVLVVYDDSDRPSGIPERFSGSNSGNTATLTISRVEAGDEADYYCQVWDGNYDHVVFGGGTKLTVLG
0.00033 s⁻¹ | 95% | 0.206 nM | 16H7 variant with light chain substitution V97N (antibody, human IgG4 S228P, lambda, V domains shown, IgG4 backbone was used) VH: not shown VL: SYVLTQPPSVSVAPGQTARITCGGNNIGSESVHWYQQKPGQAPVLVVYDDSDRPSGIPERFSGSNSGNTATLTISRVEAGDEADYYCQVWDGNSDHNVFGGGTKLTVLG
2.8e-05 s⁻¹ | 108% | 0.119 nM | 16H7 variant with light chain substitution S94V (antibody, human IgG4 S228P, lambda, V domains shown, IgG4 backbone was used) VH: not shown VL: SYVLTQPPSVSVAPGQTARITCGGNNIGSESVHWYQQKPGQAPVLVVYDDSDRPSGIPERFSGSNSGNTATLTISRVEAGDEADYYCQVWDGNVDHVVFGGGTKLTVLG
2.1e-05 s⁻¹ | 45% | 3.02 nM | 16H7 variant with light chain substitution V97F (antibody, human IgG4 S228P, lambda, V domains shown, IgG4 backbone was used) VH: not shown VL: SYVLTQPPSVSVAPGQTARITCGGNNIGSESVHWYQQKPGQAPVLVVYDDSDRPSGIPERFSGSNSGNTATLTISRVEAGDEADYYCQVWDGNSDHFVFGGGTKLTVLG
5.9e-05 s⁻¹ | 110% | 0.129 nM | 16H7 variant with light chain substitution V97L (antibody, human IgG4 S228P, lambda, V domains shown, IgG4 backbone was used) VH: not shown VL: SYVLTQPPSVSVAPGQTARITCGGNNIGSESVHWYQQKPGQAPVLVVYDDSDRPSGIPERFSGSNSGNTATLTISRVEAGDEADYYCQVWDGNSDHLVFGGGTKLTVLG
1.4e-05 s⁻¹ | 100% | 0.122 nM | 16H7 variant with light chain substitution S94E (antibody, human IgG4 S228P, lambda, V domains shown, IgG4 backbone was used) VH: not shown VL: SYVLTQPPSVSVAPGQTARITCGGNNIGSESVHWYQQKPGQAPVLVVYDDSDRPSGIPERFSGSNSGNTATLTISRVEAGDEADYYCQVWDGNEDHVVFGGGTKLTVLG
4.3e-05 s⁻¹ | 106% | 0.126 nM | 16H7 variant with light chain substitution S94I (antibody, human IgG4 S228P, lambda, V domains shown, IgG4 backbone was used) VH: not shown VL: SYVLTQPPSVSVAPGQTARITCGGNNIGSESVHWYQQKPGQAPVLVVYDDSDRPSGIPERFSGSNSGNTATLTISRVEAGDEADYYCQVWDGNIDHVVFGGGTKLTVLG
